US20240279345A1, “ALPHA 5 BETA 1 INTEGRIN BINDING AGENTS AND USES THEREOF” (PASITHEA THERAPEUTICS CORP., priority 2021, published 2024)

Key:
[1] = molecular target: α5β1 integrin on U87MG cells (human, UniProt P08648 42-1049; P05556 21-798); assay: cell-based or functional assay
[2] = test system: U87MG cell line; assay: Plate-based cell adhesion assay of U87MG cells to FN; conditions: antibody 3 to 0.01 μg/mL
Method: Cell surface α5β1 integrin receptors interact with FN to promote cellular adhesion. To test whether the human IgG4 chimeric anti-α5β1 antibodies inhibit adhesion, a plate-based cell adhesion assay was developed for use with the U87MG cell line (HTB-14™, ATCC, Manassas, VA) which is derived from a Glioblastoma tumor and is known to express α5β1 integrin. U87MG cells were grown to 80% confluence in EMEM media (ATCC, Manassas, VA, cat. no. 30-2003) supplemented with 10% Fetal Bovine Serum (FBS; ATCC, Manassas, VA, cat. no. 30-2021) in a 5% C02, 37° C. incubator. Cells were dissociated from flasks with 0.05% Trypsin, 0.02% EDTA (Lifeline Cell Technology, Frederick, MD, cat. no. CM0017), washed once with Dulbecco's 1×PBS (DPBS) Modified which contains calcium and magnesium (HyClone, Logan, UT, cat. no. SH30028-02) and resuspended in EMEM media without supplementation at a cellular concentration of 2,000,000 cells per mL. Cells were rested in the incubator for 30 minutes before mixing with a six point 1:3 dilution series of the antibodies with final concentrations ranging from 3 to 0.01 μg/mL in a 96-well polypropylene round-bottom plate. 100,000 rested cells were pre-mixed with each dilution of antibody to a final volume of 100 μL and then transferred to a Human FN coated 96-well plate (R&D Systems, Minneapolis, MN, cat. no. CWP001). The cell-antibody mixtures were incubated for 1 hour at 37° C., 5% C02. Non-adhered cells were removed from the wells by inversion of the plate on an absorbent pad, then washed 2× with 200 uL each well with 1×DPBS without Calcium and Magnesium (EMD Millipore Corp, Billerica, MA, cat. no. TMS-012-A). 100 μL 1× DPBS containing Hoechst 33342 dye (Thermo Fisher Scientific, Waltham, MA, cat. no. 62249) at the recommended dilution (1:2000) was added to each well to fluorescently stain nuclei to facilitate cell counting. Cells that remained adhered to the wells were counted using image analysis software provided by the ImageXpress Pico Automated Cell Imaging System (Molecular Devices, San Jose, CA) which is based on counting fluorescently stained nuclei, in this case using a DAPI filter to detect the Hoechst nuclear staining. Non-linear regression analysis was used to fit curves (4-parameter) to the data using GraphPad Prism version 9.0.2 (GraphPad Software, LLC, San Diego, CA).

[3] = molecular target: T1, recombinant human α4β1 integrin (rh-α4β1; R&D Systems, cat. no. 5668-A4) (human, UniProt P13612 34-977; P05556 21-728); assay: ELISA, coated rh-α4β1, supernatant 1:10
T1 construct: bought recombinant heterodimer

[4] = molecular target: T2, recombinant human α5β1 integrin (rh-α5β1; R&D Systems, cat. no. 3230-A5) (human, UniProt P08648 42-995; P05556 21-728); assay: ELISA, coated rh-α5β1, supernatant 1:10
T2 construct: bought recombinant heterodimer
Method: (§1) Plates were washed 3 times with Wash Buffer (1× Tris Buffered Saline containing 0.05% Tween20), blocked with 2% BSA in 1×TBS (made from 10× Thermo Scientific Blocker BSA (10×) in TBS; Thermo Fisher Scientific, Waltham, MA, cat. no. 37520) for 2 hours at room temperature (RT) then incubated with hybridoma supernatants diluted 1:10 with Standard Diluent (2% BSA, 1×TBS, 0.05% Tween20). […] Absorbance 450 nm was measured.

[5] = molecular target: T3, recombinant mouse α5β1 (rm-α5β1; R&D Systems, cat. no. 7728-A5) (mouse, UniProt P11688 45-999; P09055 21-728); assay: ELISA, coated rm-α5β1, supernatant 1:10
T3 construct: bought recombinant heterodimer
Method: as §1

[6] = molecular target: T4, purified recombinant human α5β1 integrin heterodimer, 6×His tagged (rh-α5β1); Acro Biosystems, cat. no. … (human, UniProt P08648 42-995; P05556 21-728); assay: BLI (Octet), supernatant mAb on anti-mouse IgG Fc sensor, 20 nM rh-α5β1
T4 construct: bought recombinant heterodimer; also called rh-α5β1-6×His tagged protein; His-tagged-α5β1
Excerpt: Anti-Mouse IgG Fc biosensors were used to load each clone supernatant. Assay steps were as follows: Sensor Check (30s)-->Load Ab (700s)-->Quench (480s)-->Baseline(480s)-->Ab Assoc. (600s)-->Dissoc. (600s).

[7] = molecular target: T4, purified recombinant human α5β1 …; assay: ELISA, inhibition of rh-α5β1-His binding to coated FN, purified hybridoma mAb
Method: Immulon4 HBX ELISA 96-well plates were coated with FN by incubation overnight at 4° C. with 2.5 μg/mL human FN (R&D Systems, Minneapolis, MN 55413, cat. no. 1918-FN) in 1×PBS (0.01M phosphate buffer and 0.154M NaCl, pH 7.4). Plates were then washed 3 times with Wash Buffer (1× Tris Buffered Saline containing 0.05% Tween20), blocked with 2% BSA in 1×TBS for 2 hours at room temperature (RT). […] Isotype control antibody (Control Ab; Ms IgG2a EMD Millipore Corp, Billerica, MA, cat. no. PP102) was used to normalize data across different assay runs. […] Following 1 hour at RT, the wells were washed 3 times, incubated with biotinylated Anti-6×His-Tag Ab (Invitrogen, Carlsbad, CA, cat. no. MAI-21315-BTIN) at 1:1000 in Standard Diluent for 1 hour, washed 3 times, incubated for 30 minutes with poly-HRP Streptavidin (Thermo Fisher Scientific, Waltham, MA, cat. no. N200), washed 4 times, incubated with TMB substrate (Thermo Fisher Scientific, Waltham, MA, cat. no. N301) for 2-5 minutes, followed by addition of ELISA Stop Solution (Invitrogen, Carlsbad, CA, cat. no. SS04). Absorbance 450 nm was measured. Data points were normalized to the isotype Control Ab values at each concentration and reported as % Absorbance 450 nm normalized to Control Ab. Non-linear regression analysis was used to fit curves (4-parameter) to the data using GraphPad Prism version 9.0.2 (GraphPad Software, LLC, San Diego, CA).

α5β1 integrin on U87MG cells, sequence (P08648 42-1049 limits assumed, chain 1 of 2): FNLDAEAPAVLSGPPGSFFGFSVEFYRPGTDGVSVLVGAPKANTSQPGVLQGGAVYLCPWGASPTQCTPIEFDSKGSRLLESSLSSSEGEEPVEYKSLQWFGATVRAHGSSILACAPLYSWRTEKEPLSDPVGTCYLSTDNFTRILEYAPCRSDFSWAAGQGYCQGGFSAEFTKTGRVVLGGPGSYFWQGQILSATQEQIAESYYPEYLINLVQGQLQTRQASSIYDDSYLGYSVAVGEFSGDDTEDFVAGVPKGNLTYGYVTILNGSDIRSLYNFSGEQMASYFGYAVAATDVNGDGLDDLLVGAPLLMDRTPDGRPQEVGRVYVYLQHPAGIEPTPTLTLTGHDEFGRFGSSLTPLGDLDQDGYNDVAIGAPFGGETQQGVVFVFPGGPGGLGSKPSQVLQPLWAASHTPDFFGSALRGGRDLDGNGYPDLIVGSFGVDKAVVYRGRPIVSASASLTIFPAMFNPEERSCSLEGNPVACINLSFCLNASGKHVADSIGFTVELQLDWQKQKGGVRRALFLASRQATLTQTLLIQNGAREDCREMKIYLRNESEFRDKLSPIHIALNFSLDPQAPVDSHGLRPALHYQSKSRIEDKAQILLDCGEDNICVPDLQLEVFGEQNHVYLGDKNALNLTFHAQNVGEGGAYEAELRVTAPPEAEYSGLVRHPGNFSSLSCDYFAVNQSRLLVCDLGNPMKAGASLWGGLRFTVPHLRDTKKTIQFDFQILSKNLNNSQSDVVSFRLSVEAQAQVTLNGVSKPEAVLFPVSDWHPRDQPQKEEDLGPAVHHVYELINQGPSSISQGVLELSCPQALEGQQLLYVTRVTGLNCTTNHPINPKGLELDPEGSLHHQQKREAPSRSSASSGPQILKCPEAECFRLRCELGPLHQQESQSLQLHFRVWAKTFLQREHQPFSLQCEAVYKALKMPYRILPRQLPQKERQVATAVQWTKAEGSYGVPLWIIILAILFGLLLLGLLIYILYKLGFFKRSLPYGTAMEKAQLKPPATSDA
α5β1 integrin on U87MG cells, sequence (P05556 21-798 limits assumed, chain 2 of 2): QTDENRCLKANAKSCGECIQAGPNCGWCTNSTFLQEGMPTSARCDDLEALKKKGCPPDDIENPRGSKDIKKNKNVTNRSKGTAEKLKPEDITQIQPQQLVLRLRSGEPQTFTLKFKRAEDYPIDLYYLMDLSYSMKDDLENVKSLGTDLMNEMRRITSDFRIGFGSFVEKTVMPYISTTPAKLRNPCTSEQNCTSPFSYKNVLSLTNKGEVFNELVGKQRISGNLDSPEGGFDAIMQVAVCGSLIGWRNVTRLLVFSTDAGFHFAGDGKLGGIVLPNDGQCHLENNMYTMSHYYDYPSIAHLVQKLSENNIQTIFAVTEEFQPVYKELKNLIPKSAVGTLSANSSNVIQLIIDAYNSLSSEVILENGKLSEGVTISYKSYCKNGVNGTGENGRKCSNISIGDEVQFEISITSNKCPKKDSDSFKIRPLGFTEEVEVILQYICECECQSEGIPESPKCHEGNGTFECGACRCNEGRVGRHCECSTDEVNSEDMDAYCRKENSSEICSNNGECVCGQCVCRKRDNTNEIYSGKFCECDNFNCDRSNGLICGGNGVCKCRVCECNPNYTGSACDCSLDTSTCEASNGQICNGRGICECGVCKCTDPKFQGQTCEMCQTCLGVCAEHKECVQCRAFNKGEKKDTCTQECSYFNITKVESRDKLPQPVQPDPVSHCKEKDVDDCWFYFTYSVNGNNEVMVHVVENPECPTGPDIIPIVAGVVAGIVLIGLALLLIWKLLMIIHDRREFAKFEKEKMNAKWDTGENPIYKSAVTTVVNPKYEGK
T1 sequence (P13612 34-977 limits assumed, form in doubt, chain 1 of 2): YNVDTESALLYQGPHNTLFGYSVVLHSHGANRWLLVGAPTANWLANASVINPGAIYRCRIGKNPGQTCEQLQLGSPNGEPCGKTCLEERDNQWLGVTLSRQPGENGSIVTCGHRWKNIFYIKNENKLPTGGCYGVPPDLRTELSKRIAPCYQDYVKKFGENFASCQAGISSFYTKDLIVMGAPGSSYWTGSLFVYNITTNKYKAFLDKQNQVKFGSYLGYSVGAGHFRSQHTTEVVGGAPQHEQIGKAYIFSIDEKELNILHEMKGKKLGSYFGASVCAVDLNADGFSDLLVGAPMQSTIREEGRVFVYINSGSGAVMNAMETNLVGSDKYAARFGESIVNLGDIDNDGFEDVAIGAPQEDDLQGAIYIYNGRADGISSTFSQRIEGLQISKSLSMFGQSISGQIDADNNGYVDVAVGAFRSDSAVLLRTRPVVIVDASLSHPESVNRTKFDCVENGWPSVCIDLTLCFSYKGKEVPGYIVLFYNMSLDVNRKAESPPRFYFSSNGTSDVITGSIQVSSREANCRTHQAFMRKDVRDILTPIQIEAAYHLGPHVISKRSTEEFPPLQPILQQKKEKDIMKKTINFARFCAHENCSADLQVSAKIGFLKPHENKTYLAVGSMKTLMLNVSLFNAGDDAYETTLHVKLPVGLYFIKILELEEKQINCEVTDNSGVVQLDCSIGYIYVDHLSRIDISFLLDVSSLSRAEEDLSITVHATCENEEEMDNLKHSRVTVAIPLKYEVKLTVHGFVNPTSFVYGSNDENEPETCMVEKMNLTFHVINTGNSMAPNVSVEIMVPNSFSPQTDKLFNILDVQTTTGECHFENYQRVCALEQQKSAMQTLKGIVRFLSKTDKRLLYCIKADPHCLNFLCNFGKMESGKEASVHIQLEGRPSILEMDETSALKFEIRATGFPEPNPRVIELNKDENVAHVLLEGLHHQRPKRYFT
T1 sequence (P05556 21-728 limits assumed, form in doubt, chain 2 of 2): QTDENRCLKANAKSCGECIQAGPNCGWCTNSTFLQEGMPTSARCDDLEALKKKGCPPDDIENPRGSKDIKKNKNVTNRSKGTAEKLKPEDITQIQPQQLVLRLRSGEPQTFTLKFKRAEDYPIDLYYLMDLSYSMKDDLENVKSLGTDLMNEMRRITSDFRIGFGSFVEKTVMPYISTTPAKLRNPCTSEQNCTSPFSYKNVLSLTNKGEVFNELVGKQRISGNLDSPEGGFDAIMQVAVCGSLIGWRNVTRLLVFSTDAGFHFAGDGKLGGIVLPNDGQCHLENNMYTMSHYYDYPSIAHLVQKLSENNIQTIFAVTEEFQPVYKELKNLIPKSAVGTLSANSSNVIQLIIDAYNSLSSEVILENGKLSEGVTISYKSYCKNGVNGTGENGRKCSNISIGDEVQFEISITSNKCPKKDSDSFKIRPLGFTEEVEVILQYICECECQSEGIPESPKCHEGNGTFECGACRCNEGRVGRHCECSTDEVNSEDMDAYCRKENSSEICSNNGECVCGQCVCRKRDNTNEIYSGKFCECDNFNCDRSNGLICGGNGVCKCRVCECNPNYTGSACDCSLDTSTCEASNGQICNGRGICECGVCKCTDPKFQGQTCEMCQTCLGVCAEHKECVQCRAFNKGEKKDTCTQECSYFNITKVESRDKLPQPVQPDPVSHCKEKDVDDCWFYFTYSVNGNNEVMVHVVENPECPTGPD
T2 sequence (P08648 42-995 limits assumed, form in doubt, chain 1 of 2): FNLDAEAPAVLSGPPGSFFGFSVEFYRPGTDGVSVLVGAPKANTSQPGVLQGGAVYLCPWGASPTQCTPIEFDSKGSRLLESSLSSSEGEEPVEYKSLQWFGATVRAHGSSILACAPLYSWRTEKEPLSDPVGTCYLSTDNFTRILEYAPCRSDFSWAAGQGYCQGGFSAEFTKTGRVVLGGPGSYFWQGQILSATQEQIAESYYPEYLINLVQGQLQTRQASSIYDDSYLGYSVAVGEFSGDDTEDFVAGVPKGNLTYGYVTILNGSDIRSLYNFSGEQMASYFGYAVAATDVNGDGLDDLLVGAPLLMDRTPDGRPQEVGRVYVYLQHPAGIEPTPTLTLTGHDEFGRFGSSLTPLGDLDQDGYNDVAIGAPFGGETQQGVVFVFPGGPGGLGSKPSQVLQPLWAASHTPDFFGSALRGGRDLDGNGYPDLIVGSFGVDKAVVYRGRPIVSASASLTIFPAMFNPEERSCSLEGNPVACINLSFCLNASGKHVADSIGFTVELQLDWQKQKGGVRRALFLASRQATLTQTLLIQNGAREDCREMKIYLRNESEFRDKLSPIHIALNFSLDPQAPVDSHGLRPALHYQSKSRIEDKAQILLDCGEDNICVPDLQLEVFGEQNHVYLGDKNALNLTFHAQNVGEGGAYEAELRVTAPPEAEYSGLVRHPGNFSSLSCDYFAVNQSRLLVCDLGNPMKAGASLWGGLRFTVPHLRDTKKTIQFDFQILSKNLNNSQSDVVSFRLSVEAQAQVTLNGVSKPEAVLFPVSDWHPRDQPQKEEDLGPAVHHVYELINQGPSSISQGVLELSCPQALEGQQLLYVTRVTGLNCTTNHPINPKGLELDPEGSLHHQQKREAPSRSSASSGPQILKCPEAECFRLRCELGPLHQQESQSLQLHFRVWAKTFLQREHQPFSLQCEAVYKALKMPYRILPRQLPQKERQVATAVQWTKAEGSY
T2 sequence (P05556 21-728 limits assumed, form in doubt, chain 2 of 2): as the sequence (P05556 21-728 limits assumed, form in doubt, chain 2 of 2) above
T4 sequence (P08648 42-995 limits assumed, form in doubt, chain 1 of 2): as the sequence (P08648 42-995 limits assumed, form in doubt, chain 1 of 2) above
T4 sequence (P05556 21-728 limits assumed, form in doubt, chain 2 of 2): as the sequence (P05556 21-728 limits assumed, form in doubt, chain 2 of 2) above

Row | Molecule | % Inhibition [1] | Cell Counts (Curve Bottom) [1] | Cell Counts (Curve Top) [1] | IC50 [2] | Absorbance 450 nm [3] | Absorbance 450 nm [4] | Absorbance 450 nm [5] | Kd [6] | koff [6] | kon [6] | % Max Inhibition [7]
1 | A2-7A05 IgG4 Chimera (antibody, V domains shown) VH: QVQLQQPGAELVKPGASVKLSCKASGYTFTIYWINWVKQRPGQGLEWIGKIYPGSISTDYNEKFKSKATLTVDTSSSTAYMQLSSLTSDDSAVYYCAITGTGGLAYWGQGTLVTVSA VL: ENVLTQSPAIMSASLGEKVTMTCRASSSVNYMYWYQQKSDASPKLWIYFTSSLAPGVPGRFSGSGSGNSYSLTISTMEGEDAATYYCQQFTTSPFTFGSGTKLEIK | 25% | 28800 cells | 38200 cells | 0.27 µg/mL | – | – | – | – | – | – | –
2 | A2-7A05 (antibody, V domains shown, mouse hybridoma antibody; also called A2-7A05 (hybridoma)) VH: QVQLQQPGAELVKPGASVKLSCKASGYTFTIYWINWVKQRPGQGLEWIGKIYPGSISTDYNEKFKSKATLTVDTSSSTAYMQLSSLTSDDSAVYYCAITGTGGLAYWGQGTLVTVSA VL: ENVLTQSPAIMSASLGEKVTMTCRASSSVNYMYWYQQKSDASPKLWIYFTSSLAPGVPGRFSGSGSGNSYSLTISTMEGEDAATYYCQQFTTSPFTFGSGTKLEIK | – | – | – | – | 0.0713 | 2.05 | 0.0682 | 0.8 nM | 0.000178 s⁻¹ | 222000 M⁻¹ s⁻¹ | 41%
3 | A2-7F01 (antibody, V domains shown, mouse hybridoma antibody) VH: QVQLQQPGAELVKPGASVKLSCKASGYTFTIYWINWVKQRPGQGLEWIGNIYPGSSSTNYNEKFKTKATLTVDTSSSTAYMQLSSLTSDDSAVYYCAITGTGGFAYWGQGTLVTVSA VL: ENVLTQSPAIMSASLGEKVTMSCRASSSVNYMYWYQQKSDASPKLWIYFTSSLAPGVPTRFSGSGSGNSFSLTISSMEGEDAATYYCQQLTGSPFTFGSGTRLEIK | – | – | – | – | 0.0617 | 2.03 | 0.0563 | 1.3 nM | 0.000314 s⁻¹ | 242000 M⁻¹ s⁻¹ | 60%
4 | A2-5D10 (antibody, V domains shown, mouse hybridoma antibody) VH: QVQLKESGPGLVAPSQSLSITCTISGFSLTSYGVHWVRQPPGKGLEWLVVIWSDGSTTYNSTLKSRLSISKDNSKSQVFLKMNSLQTDDTAMYYCARHYDYDGDWFAYWGQGTLVTVSA VL: QILLTQSPAIMSASLGERVTMTCTASSSVSSRCLHWYQQKPGSSPKLWIYSTSNLASGVPARFRGSGSGTSYSLTISSMEAEDAATYYCHQYYRSPPTFGGGTKLEIK | – | – | – | – | 0.0683 | 2.31 | 0.0647 | 2.32 nM | 0.00161 s⁻¹ | 693000 M⁻¹ s⁻¹ | 93%
5 | A-15B08 IgG4 Chimera (antibody, V domains shown) VH: QVQLKESGPGLVAPSQSLSITCTISGFSLTSYGVHWVRQPPGKGLEWLVVIWSDGSTTYNSTLKSRLSISKDNSKSQVFFKMNSLQTDDTAMYYCARHYDYDGDWFAYWGQGTLVTVSA VL: QIVLTQSPAIMSASLGERVTMTCTASSRVSSNSLHWYQQKPGSSPKLWIYSTSNLASGVPARFSGSGSGTSYSLTISSMEAEDAATYYCHQYLRSPPTFGGGTKLEIK | – | – | – | 0.12 µg/mL | – | – | – | – | – | – | –
6 | C-14D12 IgG4 Chimera (antibody, V domains shown) VH: QVQLKESGPDLVAPSQSLSITCTVSGFSLTDYGVHWVRQPPGKGLEWLVVIWSDGSTTYNSALKSRLSITKDTSKRQVFLKMNSLQTDDTAMYYCARHAPSFIRYGSRYDALDYWGQGTSVTVSS VL: QIVLTQSPAIMSASLGERVTLTCTASSSVTSSFLHWYQQKPGSSPKLWIYSTSNLASGVPARFSGSGSGTSYSLTISSMEAEDAATYYCHQYHRSPPTFGGGTKLEIK | – | – | – | 0.14 µg/mL | – | – | – | – | – | – | –
7 | A-15B08-T62A IgG4 Chimera (antibody, V domains shown) VH: QVQLKESGPGLVAPSQSLSITCTISGFSLTSYGVHWVRQPPGKGLEWLVVIWSDGSTTYNSALKSRLSISKDNSKSQVFFKMNSLQTDDTAMYYCARHYDYDGDWFAYWGQGTLVTVSA VL: QIVLTQSPAIMSASLGERVTMTCTASSRVSSNSLHWYQQKPGSSPKLWIYSTSNLASGVPARFSGSGSGTSYSLTISSMEAEDAATYYCHQYLRSPPTFGGGTKLEIK | 82% | 6320 cells | 35400 cells | 0.15 µg/mL | – | – | – | – | – | – | –
